# Biological target: PABP (hPABPC1) (human, UniProt P11940 1-636)
# Experiment: SPR
# Sequence of PABP (hPABPC1) (P11940 whole entry): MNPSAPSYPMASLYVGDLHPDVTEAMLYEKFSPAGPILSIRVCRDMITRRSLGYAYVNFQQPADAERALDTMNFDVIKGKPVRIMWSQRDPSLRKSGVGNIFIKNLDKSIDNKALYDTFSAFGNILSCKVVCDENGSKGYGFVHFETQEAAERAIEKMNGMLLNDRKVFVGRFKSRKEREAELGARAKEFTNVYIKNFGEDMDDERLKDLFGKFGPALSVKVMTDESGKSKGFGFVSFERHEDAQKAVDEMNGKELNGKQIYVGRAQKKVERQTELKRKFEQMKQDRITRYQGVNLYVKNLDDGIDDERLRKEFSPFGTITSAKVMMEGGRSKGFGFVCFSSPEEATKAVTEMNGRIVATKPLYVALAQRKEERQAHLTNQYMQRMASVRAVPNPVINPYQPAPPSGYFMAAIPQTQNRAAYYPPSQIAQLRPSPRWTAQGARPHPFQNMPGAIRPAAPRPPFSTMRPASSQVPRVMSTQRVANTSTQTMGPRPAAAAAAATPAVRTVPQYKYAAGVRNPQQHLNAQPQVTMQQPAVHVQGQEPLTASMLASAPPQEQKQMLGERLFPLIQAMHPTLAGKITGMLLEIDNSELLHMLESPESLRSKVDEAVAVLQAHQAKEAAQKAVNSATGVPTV
row,Binder,binding result
1,"AAAAAAAAAAAAAAAAAAAAAAAA (XNA, 2'-fluoro A, 50% substitution (positions in Table S2/Fig. 3A not in material)) [Biotin-RNA6 (A24 2'-F)]",no binding
2,"AAAAAAAAAAAAAAAAAAAAAAAA (XNA, 2'-O-methoxyethyl A, about 50% by design (positions in Table S2/Fig. 3A not in material)) [Biotin-RNA5 (A24 2'-MOE)]",no binding
3,"AAAAAAAAAAAAAAAAAAAAAAAA (XNA, 2'-deoxy A substitutions, about 50% by design (positions in Table S2/Fig. 3A not in material)) [Biotin-RNA3 (A24 DNA)]",no binding
4,"AAAAAAAAAAAAAAAAAAAAAAAA (XNA, 2'-O-methyl A, 50% substitution (positions in Table S2/Fig. 3A not in material)) [Biotin-RNA4 (A24 2'-OMe)]",no binding
5,ACUGCGCUGAUUUUUUUUUUUUUUUUUUUUUUUUUUUUUUUUUUUUUUUU (ssRNA) [Biotin-RNA8 (U40)],no binding

# — paper PMC12381655
